Results: the DeepSol protein solubility set

Assay: soluble on expression in E. coli; label from the status in PepcDB or PDB records

Sequence | soluble on expression in E. coli
MSTKELEERKVCFFCKILGFLSFPAIKIRIGTPANTISRHLTGFASYCIHLAVGVAHTRPEPELADDSRCYGNILDLVKRKKVTNWTQTRLVVEGKLGEGLRGIAYKVKHRNTMKCLKLLPLSWTSRNKEALEDLVALRSLKTIKKETPNYLTFFDSFVLTNLPASTQDKLNQLDPQCPATHYLGLLVELGSNSLDNTMLTTAVEGLSIVKQLVLSLVIAKRRLDTNHNDVHPGNVLVKRSASPKTLKYTLDGKVIRIPSHGLVVGIIDFSEASFGRANGNSDVGFLSFITEEISKTLSKAENRTFQTAIDGLTDARSITAIYPNASIFKKH | not soluble
MAKFTVGQDPVKGLTELKAYMEEQISKIKKATSEQEIDQLLVEVLNEYDDKMGSLSKIYKGGNEQVEQLKIDVRKLYEPLRDQFSYNHPQTLVGEFQTKLEEQHKRAEEEKRKLEKQREEQLKLEKQLEEEKQKLAKQSEVEEKPKLENQQEENITQALQKVDGIIQELTLKIDRVDQHQYKKAHDTANTLLQSLIAARDEYERDLRANEFSQELAGRKFKLACQDAVKIAKPVLEKDLGWGDYLKNLLKCLGNAVITVFTFGYQQGFFAYARPDSAKAVEKAEEDLGLRQAASSPK | not soluble
MRIEEDLKLGFKDVLIRPKRSTLKSRSDVELERQFTFKHSGQSWSGVPIIAANMDTVGTFSMASALASFDILTAVHKHYSVEEWQAFINNSSADVLKHVMVSTGTSDADFEKTKQILDLNPALNFVCIDVANGYSEHFVQFVAKAREAWPTKTICAGNVVTGEMCEELILSGADIVKVGIGPGSVCTTRVKTGVGYPQLSAVIECADAAHGLGGMIVSDGGCTTPGDVAKAFGGGADFVMLGGMLAGHEESGGRIVEENGEKFMLFYGMSSESAMKRHVGGVAEYRAAEGKTVKLPLRGPVENTARDILGGLRSACTYVGASRLKELTKRTTFIRVQEQENRIFNNL | soluble
MSIPKQLMIGSVPYEVEVVKGWIDEKENGEVRIAEVTYHEQQIKISDNVAKHEGQMKNVLHEAIHAMLYEYGLDRLNKEVNVNALTTVFFDFIKNNIRGGISSFVGYQYLLLKCPEKTNVEFYDSDTDPATLRFKKETDELSFINTAAELVETINQHPPEVDVSALGVAMAKAEVHKAVDLGVAHEQIQESAVKMTTDKQTRKLPIVDVNRSSFPMEEIAKITKKEETDPIHWKTGIKYDDEGTPRYRTRYECCMCGNRGNQYEYEENKFTKCHKCNAKLKIVQATKNGFPERDAFGNFYVANDEYSVILDGE | not soluble
MKKLITALSLVLVSYASMAAQECSLDFVKSAPNSRYLYSDLGVVTDLKTGLTWMRCPVGMTWDMAQKACSGEAQKVTWQNALLTAEQIRNASGNHVLHNFADKKQWRLPNIKELVTLTERACFHPSMNGTAFESAYSLETGDLGSYIWSNTPGTDARQIMTFESVNGDVIGYSPEANQFSVLLVTDEDLEHHHHHH | not soluble
TINPVMQQVAYDQLTAKGYTGSVVAIEPSTGRILTMVSTPSYDPNSLASHDGTETTQAWEALNADPEKPLINRAVSQTYPPGSTFKVVVTAAALAAGTTPDTQLTAAPQITLPGTSTTLENYNGSTCGGAPTASLREAFARSCNTAFVELGVKTGTDAVSDQSSALGIGGQMPGVPFPVADSTIGSIPDDAALGQSSIGQRDVALTPLQNAMIAATVANGGVRMQPQLVSELQGPDLSNLATTNPVSEGQAMSSQVAATLTDLMIGSENNTSGEGKIPGVQIASKTGTAEHGTDPRNTPPHAWYIGFAPAQNPTVAIAVIVEDGGDRALAATGGSVAAPIGRAVIAAGLQGG | not soluble
MGKVTGFLEIERHDRVYAPVTDRVKNYNEFVVPLSEKDLRDQAARCMNCGIPYCHGTGSAQPGATGCPVNNQIPDWNDLVYNGYWQEAARTLHSTNNFPEFTGRICPAPCEASCTLNIDDNPVTIKTIECAIVDTAFDNGWVTPEIAAVKTGQSVAVVGAGPAGLACAQQLARAGHDVHVYEKFAKAGGLLRYGIPDFKMEKTLIDRRVAQMEAEGVTFHYGAPVGGSAPGAVDPAELLKQYDAVALTGGAEAPRDLPIPGRELGGIHFAMDFLTQQNRRVSGEAVNGTDILAAGKNVVVIGGGDTGSDCIGTSIRQGAKSVTQIEIMPAPPERENKALTWPNWPMKMRTSSSQAEGAAREFAVMTQSFEGEGGVVKKLNCVRVDAKFQPIPGTEFTLEADLVLLAMGFVSPVKEGLLTQLGVALDPRGNVAADLSHFTTSVDKVFAAGDMRRGQSLVVWAIREGRLCAQAIDRFLMGATTLPRLEHHHHHH | not soluble
MNSSKAGGCHGINDIKVKTAKPKDKPYKLADGGGMYLLINTNGSKYWRMKYRFAGKEKMLSIGVYPDVTLADAREKRSEARKLLAAGGDPGEAKKEEKIAQQMSLKNTFEAIAREWHQLKADRWSLRYRDEIIDTFEKDIFPYIGKRPIAEIKPMKLLEALRKMEKRGALEKMRKVRQRCGEVFRYAIVTGRADYNPAPDLASALATPKKVHFPFLTANELPHFLNDLAGYTGSIITKTATQIIMLTGVRTQELRFARWEDIDFETKLWEIPAEVMKMKRPHIVPLSEQVIMLFKQLEPISKHHPLVFIGRNDPRKPISKESINQVIELLGYKGRLTGHGFRHTMSTILHEQGFNSAWIEMQLAHVDKNSIRGTYNHALYLDGRREMMQWYADYIDSLSSRES | not soluble
MGSDKIHHHHHHMQSYSLAELNKETTIGGIGKTVERDVPVIDLADFDNRKAEIADQLWEASVGIGFFQVYNHGIPQQDIDAAFETAWSFFELPADIKAQYPMPKGTNAGWEFKAQVRPSTGTPDNKESYQITRPMMGGLWPSEEELPDFKEKMLRFERQNWELGMRILSCFALKMGFAEDFFTKAHDPASSEYQSTQRLIHYMSMEHAKPEDFEFWRAGAHSDFDCLTILHQKEGEGGLQVCPGKDAASGEWTDVPPKNGYITCNIGDMLMRWSDDQLQSTLHRVRMPRPGEYLGRRLSLPFFCQANRDAVMQGPLGKYEAITAGDYLTQRINANFARK | not soluble
MADLPISLLQTLAYKQPLGRNSRIVHFTDGALFPVVAFGDNHSTSELYIAVRGDHRDLMSPDVRDSYALTGDDHKVWGATHHTYYVEGAPKKPLKFNVKTRTDLTILPVADVFWRADGSADVDVVWNDMPAVAGQSSSIALALASSLPFVPKAAYTGCLSGTNVQPVQFGNLKARAAHKIGLPLVGMTQDGGEDTRICTLDDAADHAFDSMESTVTR | soluble
MSLPNNEKITRLQQQEKNTQQTVTVAKNKAANLAKFQKEVEATTLDFETQAALLPKEKEIPKLLKDISALGSNTGLDFISFKPLANRPKDFYAEIPISIQVRGPYHNVGSFFDQINKLERIVSVKSVKMTSPKKEDGEMLLTSNCQLVTYQFTNIELPKEGHHHHHH | soluble
MSLANRMPTPGSLAAFLKDRRTRLDPASFGFSGRRRTPGLRREEVAQRANISPTWYTWLEQGRGGAPSADVLNRIAKGLLLTEAEREHLFMLGLGRPPEVRYRGDEGVSPRLQRLIDTLEASPALVKTATWDVVAWNRAAEIVLTDYGTIPAGRRNILRFMFLTPHIRAKQHDWENLARFVVGAFRADAARAGAVSEVTQLVDELCSGSAEFATLWQENDVLAHGDGTKRLKHPELGDIELEYSSFAVDGRPDLNLTVYNPVDSEVADRIRSLAKRLREGHHHHHH | soluble
MGSDKIHHHHHHMTKTYHFIGIKGSGMSALALMLHQMGHKVQGSDVEKYYFTQRGLEQAGIQILPFDEKNITADVELIAGNAFRPDNNVEIAYVDAQGYTYKRYHEFLGEFMKGFTSLGVAGAHGKTSTTGLLAHVMRNITDTSFLIGDGTGRGSANAQYFVFESDEYERHFAPYHPEYSIITNIDFDHPDYFTSLEDVFNAFNDYAKQVKKALLVFGEDEQLRRITANAPIYYYGFEENNDFVAYDLKPSTSGSQFKVRHGEEELGEFQIPTFGKHNVMNATAVIANLYIAGFDLQLVAEHLKTFGGVKRRFTEKIVNDTVIIDDFAHHPTEIIATIDAARQKYPSKELVAIFQPHTFTRTIALLDEFADALNGADAVYLAQIYGSARETDNGQVKVEDLAAKINKKGGLVTVENTSPLLDHDNAVYVFMGAGDIQSYEYSFERLLSNLTNNVQ | not soluble
MGSDKIHHHHHHVDIQALKKVSELDVFSLLVFKLIYETGFANFAAKELAVSAPKISRCLTSLRAIFNDELFFRRQQGLKPTPLAERLYQPVCQLCDMVSQIERVADDRLNHHQTPILHIAVSPSIITSVAIALSKLPRDVIGKVKLHSWQADTEELIYNGELDFGIGFETQDTHGLEAYPIANVTSLCVVGNTNHLFWAGAEQIKLEDIIQHPIVYLRCKGFNNRIDPLELYCQTHGLLLEDIECARKLEDWYWHILTMDSLAITICNEGSFAQQIPQLRVERLPQSEFTKLNSVMAMPSYCLIERAEHYRRYSLNVKEMIIDIIKSLLV | not soluble
MSLLYKKHSLHNIGRWVTNNSFFRKSGRIAVSTFNVAKFGGTSVANFEAMSRCSAIIENNPQTRLVVSSACSGVTNLLVELANGVASTERRQAILQQLADIHYVIIDQLADPTRVEKEVKAVLDSVASAAEAASFQSSKKLTDHLVACGELISTYILTQLMRERGVDAVRFDIREVLRTDDHYGRAEPQLKEIAQLAKEKLVPLCEQYVVVTQGFIGSDAQGNTTTLGRGGSDYSAALIAEAVQASGLEIWTDVPGIYSTDPRIAPKAAPIPEISFSEASEMANFGAKILHPSTLLPAVRHGIPVFVGSSKEPEKGGTWIRKQVESAPLYRALALRCNQTMVTLRSAQMFHAYGFLAKVFEILAKHKISVDLITTSEISVSLTLDKTDTSGGAPELPEAVRAELEELCTVEVEYNLCLIALIGNKMKESRGYAKQVFSVLEDYNLRMICYGASAHNLCFLLHESVSKQAVQKLHKELFEQEEGHHHHHH | soluble
MSLAKITGGYTATGSAADTMNALAVDDNQSSSGYDRDSFGFRTTDVDGNGCDVRDDVLARDLTDITYKYAGSCVVESGTLADPYTAQTIHFVRGRATSAKVQIDHVVALENAWQSGARDWSTAKRHEFGNDPYNLMAVDGPANQEKGSASAAYWMPTNADYRCDYVARQIGVKDKYQLTVTSQEKDAMLAVLHTCPGQAVPADEEGHHHHHH | soluble
MLKRRRFHVHFGWILFHCQDCMRHEEGSEESESSFTEMVAEELKLREAQAQEDEWRADRLLLDAKKAASQYQKEADKCSMGMETCELAREKAEAALDEQRRLSYMWELRARQGGWKEGTVASDVI | soluble
MSLINEATLAESIRRLRQGERATLAQAMTLVESRHPRHQALSTQLLDAIMPYCGNTLRLGVTGTPGAGKSTFLEAFGMLLIREGLKVAVIAVDPSSPVTGGSILGDKTRMNDLARAEAAFIRPVPSSGHLGGASQRARELMLLCEAAGYDVVIVETVGVGQSETEVARMVDCFISLQIAGGGDDLQGIKKGLMEVADLIVINKDDGDNHTNVAIARHMYESALHILRRKYDEWQPRVLTCSALEKRGIDEIWHAIIDFKTALTASGRLQQVRQQQSVEWLRKQTEEEVLNHLFANEDFDRYYRQTLLAVKNNTLSPRTGLRQLSEFIQTQYFDEGHHHHHH | soluble
MGSDKIHHHHHHMTLAEKILSQKAGRKVEPGEFLLLEPDIALANDITAPLAIKKFKEYGGKKVKYPDRVVLVPDHFTPNKDIKSAMQVKMMREFAREQGIEKFFEIGRMGIEHVLLPEEGIVKSGDLVVGADSHTCTYGALGAFATGVGSTDIAGFYLIGKVWFRVPESIKVTLRGKFKDLVTAKDLVLKLISILGVDGANYKAIEFSGPGVKEISMDGRFTISNMAIEAGGKTGLFPVDEITIAYERERGIEVEEMYPDEDAKYVREVEMDLSELEPQVAYPFLPSNAKDVSEAEKERIKIDQAVIGSCTNGRIEDLRLAAQILKGRTVSPDVRCIIIPGSQKVYKQALKEGLIDIFIDAGCAVSTPTCGPCLGGHMGVLAEGEVAISTTNRNFVGRMGHPNSKVFLASPAVAAASAIKGYIADPRKL | not soluble
MSQNATVNVDIKLGVNKFHVDEGHPHIILTENPDINEFRKLMKACPAGLYKQDDVGNIHFDPAGCLECGTCRVLCGNTILEQWQYPAGTFGIDFRYG | not soluble
